Measurements from article doi:10.1101/2021.07.07.451367 (bioRxiv, 2021).

Target: T1, mNG::aPKC (C. elegans (endogenous in zygotes), UniProt Q19266 1-597)
T1 sequence (looked up): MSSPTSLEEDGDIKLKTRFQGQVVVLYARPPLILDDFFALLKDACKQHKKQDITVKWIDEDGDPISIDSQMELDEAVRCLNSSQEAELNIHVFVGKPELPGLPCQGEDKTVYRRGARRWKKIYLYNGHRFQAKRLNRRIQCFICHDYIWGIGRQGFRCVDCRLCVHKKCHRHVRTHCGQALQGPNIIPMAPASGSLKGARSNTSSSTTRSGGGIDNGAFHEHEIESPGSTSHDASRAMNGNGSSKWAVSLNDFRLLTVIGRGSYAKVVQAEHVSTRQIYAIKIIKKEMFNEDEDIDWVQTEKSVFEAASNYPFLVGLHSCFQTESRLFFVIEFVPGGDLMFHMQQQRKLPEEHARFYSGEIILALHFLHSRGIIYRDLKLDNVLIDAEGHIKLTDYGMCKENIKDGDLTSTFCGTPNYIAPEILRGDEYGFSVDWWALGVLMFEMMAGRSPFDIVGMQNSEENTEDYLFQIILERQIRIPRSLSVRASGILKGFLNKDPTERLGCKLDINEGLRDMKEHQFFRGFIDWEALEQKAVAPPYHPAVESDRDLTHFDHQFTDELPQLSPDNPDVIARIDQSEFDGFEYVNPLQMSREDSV
Assay: single-cell single-molecule pull-down

B1: PAR-6::HaloTag (natural protein, C. elegans (endogenous in zygotes), UniProt Q9NAN2 1-309, looked up)
chain: MSYNGSYHQNHHSTLQVKSKFDSEWRRFSIPMHSASGVSYDGFRSLVEKLHHLESVQFTLCYNSTGGDLLPITNDDNLRKSFESARPLLRLLIQRRGESWEEKYGYGTDSDKRWKGISSLMAQKPPKRSYSISNPEDFRQVSAIIDVDIVPEAHRRVRLCKHGQERPLGFYIRDGTSVRVTERGVVKVSGIFISRLVDGGLAESTGLLGVNDEVLEVNGIEVLGKTLDQVTDMMVANAHNLIITVKPANQRNTLSRGPSQQGTPNASEMSAATAAATGGIQRPMKMNGSSDGSYHPKQHDANDSDSGED
modifications: HaloTag labelled with HaloTag ligand dye JF646, JFX646 or JFX650
koff: 0.002 s⁻¹
